Peptide exchange data for 70 substances are collected here from patent publication US20170002055A1, “Novel peptides and combination of peptides for use in immunotherapy against ovarian cancer and other cancers” (immatics biotechnologies GmbH, priority 2015, published 2017).

For this assay, the target named is HLA-A*02:01 (Homo sapiens, UniProt P04439, D140Y/D185E/D98H/E176V/E277Q/G131W/G231S/I119V/I121R/I166T/I218V/L300P/L318F/N151K/N90K/P208A/P217A/Q86G/Q94H/R138H/R169H/T345S). Briefly: MHC binding assay (UV-ligand exchange, β2m ELISA, peptide exchange yield). Particulars: MHC class I binding score; binding to HLA-A*02:01 ranged by peptide exchange yield (UV-ligand exchange, β2m ELISA). The method in brief: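 Binding is expressed as peptide exchange yield: stabilized MHC complexes were quantified by β2m ELISA, with a 450 nm TMB read-out on streptavidin-coated plates. Complexes came from UV-ligand exchange, where UV irradiation cleaves a photolabile peptide so the candidate peptide can load.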
In general terms: ELISA stands for enzyme-linked immunosorbent assay.
Turning to “223 (ALLENIALYL; listed as Homo sapiens) [compound 223]”, the Peptide exchange entry was ““+++” (≧50 = +++)”.

In the case of “224 (TLIDAQWVL; listed as Homo sapiens) [compound 224]”, the Peptide exchange entry is on record as ““+++” (≧50 = +++)”.

Take “225 (SLLKVLPAL; listed as Homo sapiens) [compound 225]”: the Peptide exchange entry is reported as ““+++” (≧50 = +++)”.

On to “226 (MLYVVPIYL; listed as Homo sapiens) [compound 226]”, for which the Peptide exchange entry is listed as ““++” (≧20% = ++)”.

Consider “227 (ALMNTLLYL; listed as Homo sapiens) [compound 227]”, for which the Peptide exchange entry was ““++” (≧20% = ++)”.

Take “228 (AMQEYIAVV; listed as Homo sapiens) [compound 228]”: the Peptide exchange result is given as ““++” (≧20% = ++)”.

In the case of “229 (RLPGPLGTV; listed as Homo sapiens) [compound 229]”, the Peptide exchange entry is ““++” (≧20% = ++)”.

As to “230 (ILVDWLVEV; listed as Homo sapiens) [compound 230]”, the Peptide exchange entry was ““+” (≧10% = +)”.

“231 (FLSPQQPPLLL; listed as Homo sapiens) [compound 231]”: the Peptide exchange result is given as ““++” (≧20% = ++)”.

Regarding “232 (ALLEAQDVELYL; listed as Homo sapiens) [compound 232]”, the Peptide exchange entry is recorded as ““++” (≧20% = ++)”.

Take “233 (VLSETLYEL; listed as Homo sapiens) [compound 233]”: the Peptide exchange entry is reported as ““++” (≧20% = ++)”.

Turning to “234 (ALMEDTGRQML; listed as Homo sapiens) [compound 234]”, the Peptide exchange entry is ““++” (≧20% = ++)”.

“235 (YLNDLHEVLL; listed as Homo sapiens) [compound 235]”: the Peptide exchange result was ““++++” (≧75% = ++++)”.

“236 (GLLEAKVSL; listed as Homo sapiens) [compound 236]”: the Peptide exchange result is reported as ““+++” (≧50 = +++)”.

In the case of “237 (ALLEASGTLLL; listed as Homo sapiens) [compound 237]”, the Peptide exchange result is given as ““++++” (≧75% = ++++)”.

Take “238 (YLISFQTHI; listed as Homo sapiens) [compound 238]”: the Peptide exchange result is ““+++” (≧50 = +++)”.

Turning to “239 (AAFAGKLLSV; listed as Homo sapiens) [compound 239]”, the Peptide exchange entry is ““+++” (≧50 = +++)”.

On to “240 (ILLEQAFYL; listed as Homo sapiens) [compound 240]”, for which the Peptide exchange result is ““+++” (≧50 = +++)”.

Turning to “241 (SLVEVNPAYSV; listed as Homo sapiens) [compound 241]”, the Peptide exchange entry is ““+++” (≧50 = +++)”.

As for “243 (LLLNELPSV; listed as Homo sapiens) [compound 243]”, the Peptide exchange entry is recorded as ““+++” (≧50 = +++)”.

Consider “244 (SLFGGTEITI; listed as Homo sapiens) [compound 244]”, for which the Peptide exchange entry is ““+++” (≧50 = +++)”.

Turning to “245 (SMIDDLLGV; listed as Homo sapiens) [compound 245]”, the Peptide exchange result is ““+++” (≧50 = +++)”.

Turning to “246 (LLWEVVSQL; listed as Homo sapiens) [compound 246]”, the Peptide exchange entry was ““+++” (≧50 = +++)”.

Take “248 (FLFPNQYVDV; listed as Homo sapiens) [compound 248]”: the Peptide exchange entry is recorded as ““+++” (≧50 = +++)”.

“249 (LLDGFLVNV; listed as Homo sapiens) [compound 249]”: the Peptide exchange entry is reported as ““+++” (≧50 = +++)”.

As to “250 (ALSEEGLLVYL; listed as Homo sapiens) [compound 250]”, the Peptide exchange entry is listed as ““+++” (≧50 = +++)”.

Take “251 (ALYTGFSILV; listed as Homo sapiens) [compound 251]”: the Peptide exchange result was ““++” (≧20% = ++)”.

Take “252 (LLIGTDVSL; listed as Homo sapiens) [compound 252]”: the Peptide exchange entry was ““+++” (≧50 = +++)”.

As to “253 (GLDAATATV; listed as Homo sapiens) [compound 253]”, the Peptide exchange entry is on record as ““++” (≧20% = ++)”.

As to “254 (TLLAFIMEL; listed as Homo sapiens) [compound 254]”, the Peptide exchange result is reported as ““+++” (≧50 = +++)”.

“255 (VLASYNLTV; listed as Homo sapiens) [compound 255]”: the Peptide exchange result is ““+++” (≧50 = +++)”.

For “256 (FLPPEHTIVYI; listed as Homo sapiens) [compound 256]”, the Peptide exchange entry is ““+++” (≧50 = +++)”.

“257 (SIFSAFLSV; listed as Homo sapiens) [compound 257]”: the Peptide exchange entry is recorded as ““+++” (≧50 = +++)”.

“258 (ELAERVPAI; listed as Homo sapiens) [compound 258]”: the Peptide exchange result is recorded as ““++” (≧20% = ++)”.

Turning to “261 (YVLEFLEEI; listed as Homo sapiens) [compound 261]”, the Peptide exchange result is listed as ““++” (≧20% = ++)”.

Take “262 (LLWGDLIWL; listed as Homo sapiens) [compound 262]”: the Peptide exchange entry is ““+++” (≧50 = +++)”.

Regarding “263 (LLVSNLDFGV; listed as Homo sapiens) [compound 263]”, the Peptide exchange result is ““+++” (≧50 = +++)”.

For “264 (SLQEQLHSV; listed as Homo sapiens) [compound 264]”, the Peptide exchange entry is on record as ““+++” (≧50 = +++)”.

On to “265 (LLFGGTKTV; listed as Homo sapiens) [compound 265]”, for which the Peptide exchange entry is ““++” (≧20% = ++)”.

As for “266 (KITDTLIHL; listed as Homo sapiens) [compound 266]”, the Peptide exchange result was ““+++” (≧50 = +++)”.

Take “267 (ALQDFLLSV; listed as Homo sapiens) [compound 267]”: the Peptide exchange result is recorded as ““+++” (≧50 = +++)”.

On to “269 (RVLEVGALQAV; listed as Homo sapiens) [compound 269]”, for which the Peptide exchange entry is ““++” (≧20% = ++)”.

Regarding “270 (LLLDEEGTFSL; listed as Homo sapiens) [compound 270]”, the Peptide exchange result is reported as ““++” (≧20% = ++)”.

“271 (LVYPLELYPA; listed as Homo sapiens) [compound 271]”: the Peptide exchange result is reported as ““+++” (≧50 = +++)”.

As for “272 (ALGNTVPAV; listed as Homo sapiens) [compound 272]”, the Peptide exchange entry is listed as ““+++” (≧50 = +++)”.

Take “273 (NLFQSVREV; listed as Homo sapiens) [compound 273]”: the Peptide exchange entry is ““++” (≧20% = ++)”.

As for “274 (SLLFSLFEA; listed as Homo sapiens) [compound 274]”, the Peptide exchange result is ““++” (≧20% = ++)”.

Turning to “275 (YLVYILNEL; listed as Homo sapiens) [compound 275]”, the Peptide exchange result is ““++” (≧20% = ++)”.

With “276 (ALFTFSPLTV; listed as Homo sapiens) [compound 276]”, the Peptide exchange result was ““+++” (≧50 = +++)”.

As to “277 (LLPPLESLATV; listed as Homo sapiens) [compound 277]”, the Peptide exchange entry is ““++” (≧20% = ++)”.

For the substance “278 (QLLDVVLTI; listed as Homo sapiens) [compound 278]”, the Peptide exchange entry is given as ““++” (≧20% = ++)”.

Regarding “279 (ALWGGTQPLL; listed as Homo sapiens) [compound 279]”, the Peptide exchange result is on record as ““++” (≧20% = ++)”.

With “280 (VLPDPEVLEAV; listed as Homo sapiens) [compound 280]”, the Peptide exchange entry was ““+++” (≧50 = +++)”.

With “281 (ILRESTEEL; listed as Homo sapiens) [compound 281]”, the Peptide exchange result was ““+++” (≧50 = +++)”.

Regarding “282 (LLADVVPTT; listed as Homo sapiens) [compound 282]”, the Peptide exchange entry is recorded as ““+++” (≧50 = +++)”.

“284 (ILLSQTTGV; listed as Homo sapiens) [compound 284]”: the Peptide exchange result is ““+++” (≧50 = +++)”.

Turning to “285 (QLLHVGVTV; listed as Homo sapiens) [compound 285]”, the Peptide exchange result is ““+++” (≧50 = +++)”.

“286 (YLFPGIPEL; listed as Homo sapiens) [compound 286]”: the Peptide exchange entry is recorded as ““+++” (≧50 = +++)”.

Consider “287 (FLNEFFLNV; listed as Homo sapiens) [compound 287]”, for which the Peptide exchange entry is ““+++” (≧50 = +++)”.

“288 (NLINEINGV; listed as Homo sapiens) [compound 288]”: the Peptide exchange result is on record as ““+++” (≧50 = +++)”.

Consider “289 (VLLEIEDLQV; listed as Homo sapiens) [compound 289]”, for which the Peptide exchange result is ““++++” (≧75% = ++++)”.

“295 (VLDRESPNV; listed as Homo sapiens) [compound 295]”: the Peptide exchange entry was ““+++” (≧50 = +++)”.

Regarding “296 (FMEGAIIYV; listed as Homo sapiens) [compound 296]”, the Peptide exchange entry is ““+++” (≧50 = +++)”.

In the case of “297 (VLADIELAQA; listed as Homo sapiens) [compound 297]”, the Peptide exchange result is ““+++” (≧50 = +++)”.

Regarding “298 (VMITKLVEV; listed as Homo sapiens) [compound 298]”, the Peptide exchange result is ““+++” (≧50 = +++)”.

As to “299 (YLLETSGNL; listed as Homo sapiens) [compound 299]”, the Peptide exchange result was ““+++” (≧50 = +++)”.

For “300 (ALLGQTFSL; listed as Homo sapiens) [compound 300]”, the Peptide exchange entry is recorded as ““+++” (≧50 = +++)”.

Turning to “301 (FLVEDLVDSL; listed as Homo sapiens) [compound 301]”, the Peptide exchange entry was ““+++” (≧50 = +++)”.

For the substance “302 (ALLQEGEVYSA; listed as Homo sapiens) [compound 302]”, the Peptide exchange result is given as ““+++” (≧50 = +++)”.

As for “303 (AILPQLFMV; listed as Homo sapiens) [compound 303]”, the Peptide exchange result was ““++++” (≧75% = ++++)”.
